Reference: PMC12060649, “Tuning the Dimensionality of Protein–Peptide Coassemblies to Build 2D Conductive Nanomaterials” (ACS Nano, 2025)

B1: E9 peptide (peptide)
peptide: EEFEFEFEFEFEFEE
notes: designed amphiphilic peptide, E6 with additional glutamic acids at both termini
B2: 6-repeat peptide (FE)6, E6 (peptide)
peptide: FEFEFEFEFEFE
notes: designed amphiphilic peptide, six repeats of the dipeptide Phe-Glu; Forms supramolecular fibres; also called (FE)n with n = 6
B3: E7 peptide (peptide)
peptide: EFEFEFEFEFEFE
notes: designed amphiphilic peptide, E6 with one more glutamic acid at the N-terminus; In the coassemblies it stood as pre-formed, sonicated self-assembled fibres; also called E7 fibers; E7 self-assembled fibers

Biological target: the molecule itself
Test: AFM + other: TEM; peptides in water at pH ≈ 5, sonicated 10 min, annealed at 80° for 30 min; AFM on mica at 1 mM, dry tapping mode; TEM at 10 μM, negative staining with uranyl acetate

Binding result, binds:
B1
B2
B3
